# In patent US20230257470A1 (published 2023):
# Positions count from the first letter of the chain named.
# T1: human FcγRIIa(R) (human, UniProt P12318 36-217)
# T1 construct: also called FcgRIIaR; FcγRIIa type R
# T1 chain: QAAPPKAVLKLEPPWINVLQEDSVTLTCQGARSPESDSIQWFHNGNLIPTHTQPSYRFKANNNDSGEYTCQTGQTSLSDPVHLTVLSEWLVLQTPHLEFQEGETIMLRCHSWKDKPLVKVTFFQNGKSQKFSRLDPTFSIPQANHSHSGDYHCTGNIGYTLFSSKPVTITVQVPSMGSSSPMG
# T2: human FcγRIIa(H) (human, UniProt P12318 36-217)
# T2 construct: also called FcgRIIaH; FcγRIIa type H
# T2 sequence: T1 chain with R133H
# T3: human FcγRIIb (human, UniProt P31994 43-217, limits assumed)
# T3 construct: also called FcgRIIb; FcγIIB
# T3 sequence: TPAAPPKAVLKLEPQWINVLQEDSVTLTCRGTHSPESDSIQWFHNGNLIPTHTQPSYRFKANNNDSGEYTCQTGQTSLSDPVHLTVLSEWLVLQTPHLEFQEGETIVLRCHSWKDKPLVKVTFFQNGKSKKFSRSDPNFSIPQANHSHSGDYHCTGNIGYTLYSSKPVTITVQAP
# B1: GpH7-B3/GpL16-k0 variant D270P (antibody, human IgG1)
# heavy: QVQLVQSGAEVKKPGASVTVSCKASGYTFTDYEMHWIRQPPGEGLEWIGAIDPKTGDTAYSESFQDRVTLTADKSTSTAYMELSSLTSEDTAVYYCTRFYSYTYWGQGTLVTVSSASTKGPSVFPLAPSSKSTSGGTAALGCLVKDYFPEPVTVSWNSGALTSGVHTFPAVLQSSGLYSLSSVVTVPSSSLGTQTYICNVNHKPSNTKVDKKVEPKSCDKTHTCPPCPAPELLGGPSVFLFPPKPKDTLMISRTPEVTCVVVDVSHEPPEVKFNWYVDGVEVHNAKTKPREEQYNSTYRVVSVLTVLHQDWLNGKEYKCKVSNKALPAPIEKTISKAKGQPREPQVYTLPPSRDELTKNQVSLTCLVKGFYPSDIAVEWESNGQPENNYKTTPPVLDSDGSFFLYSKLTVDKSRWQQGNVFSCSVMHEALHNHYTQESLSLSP
# light: DIVMTQSPLSLPVTPGEPASISCQASESLVHSNRNTYLHWYLQKPGQSPQLLIYKVSNRFSGVPDRFSGSGSGTDFTLKISRVEAEDVGVYYCSQNTHVPPTFGQGTKVEIE
# notes: also called B3 variant; copies: 2 + 2
# B2: GpH7-B3/GpL16-k0 variant Q295F (antibody, human IgG1)
# heavy: not shown
# light: B1 light
# notes: as for B1
# B3: GpH7-B3/GpL16-k0 variant D270N (antibody, human IgG1)
# heavy: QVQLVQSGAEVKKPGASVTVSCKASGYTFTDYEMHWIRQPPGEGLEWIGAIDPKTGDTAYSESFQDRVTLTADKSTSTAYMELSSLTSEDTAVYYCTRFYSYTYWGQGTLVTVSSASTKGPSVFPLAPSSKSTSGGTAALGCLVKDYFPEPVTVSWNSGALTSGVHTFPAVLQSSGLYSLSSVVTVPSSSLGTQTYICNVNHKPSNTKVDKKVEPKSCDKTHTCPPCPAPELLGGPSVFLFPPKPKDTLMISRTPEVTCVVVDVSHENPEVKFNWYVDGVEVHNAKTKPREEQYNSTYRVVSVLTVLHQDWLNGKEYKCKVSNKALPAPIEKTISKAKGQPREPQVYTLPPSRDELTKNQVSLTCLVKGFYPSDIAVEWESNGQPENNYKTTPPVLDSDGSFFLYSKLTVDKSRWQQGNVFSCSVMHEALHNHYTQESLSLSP
# light: B1 light
# notes: as for B1
# B4: GpH7-B3/GpL16-k0 variant Y296P (antibody, human IgG1)
# heavy: not shown
# light: B1 light
# notes: as for B1
# B5: GpH7-B3/GpL16-k0 variant P271F (antibody, human IgG1)
# heavy: not shown
# light: B1 light
# notes: as for B1
# B6: GpH7-B3/GpL16-k0 variant D270I (antibody, human IgG1)
# heavy: not shown
# light: B1 light
# notes: as for B1
# B7: GpH7-B3/GpL16-k0 variant P271H (antibody, human IgG1)
# heavy: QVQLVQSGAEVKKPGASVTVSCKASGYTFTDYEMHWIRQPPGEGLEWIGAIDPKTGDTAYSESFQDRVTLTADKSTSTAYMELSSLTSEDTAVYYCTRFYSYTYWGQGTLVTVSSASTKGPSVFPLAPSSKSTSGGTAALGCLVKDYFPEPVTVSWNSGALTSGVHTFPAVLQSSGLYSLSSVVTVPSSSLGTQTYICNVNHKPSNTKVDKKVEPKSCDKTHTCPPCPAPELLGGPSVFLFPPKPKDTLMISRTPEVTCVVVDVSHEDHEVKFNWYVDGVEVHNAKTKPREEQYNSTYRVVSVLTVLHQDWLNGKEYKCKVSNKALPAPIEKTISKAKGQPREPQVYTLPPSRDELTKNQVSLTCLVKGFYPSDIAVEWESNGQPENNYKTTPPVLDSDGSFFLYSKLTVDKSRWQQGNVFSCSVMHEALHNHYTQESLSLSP
# light: B1 light
# notes: as for B1
# B8: GpH7-B3/GpL16-k0 variant D270Q (antibody, human IgG1)
# heavy: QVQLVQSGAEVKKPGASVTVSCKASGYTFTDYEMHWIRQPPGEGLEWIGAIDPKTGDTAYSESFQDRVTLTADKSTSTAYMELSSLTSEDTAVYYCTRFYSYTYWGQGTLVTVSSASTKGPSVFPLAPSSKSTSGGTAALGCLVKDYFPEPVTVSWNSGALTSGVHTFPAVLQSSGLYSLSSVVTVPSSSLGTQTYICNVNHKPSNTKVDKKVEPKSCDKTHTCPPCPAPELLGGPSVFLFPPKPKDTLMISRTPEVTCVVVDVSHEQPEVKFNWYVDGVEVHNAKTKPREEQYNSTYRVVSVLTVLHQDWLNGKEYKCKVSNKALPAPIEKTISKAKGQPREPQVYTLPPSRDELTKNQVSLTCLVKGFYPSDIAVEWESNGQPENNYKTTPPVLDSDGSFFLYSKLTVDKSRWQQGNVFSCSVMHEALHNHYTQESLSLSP
# light: B1 light
# notes: as for B1
# B9: GpH7-B3/GpL16-k0 variant P271W (antibody, human IgG1)
# heavy: not shown
# light: B1 light
# notes: as for B1
# B10: GpH7-B3/GpL16-k0 variant D270V (antibody, human IgG1)
# heavy: not shown
# light: B1 light
# notes: as for B1
# B11: GpH7-B3/GpL16-k0 variant S298W (antibody, human IgG1)
# heavy: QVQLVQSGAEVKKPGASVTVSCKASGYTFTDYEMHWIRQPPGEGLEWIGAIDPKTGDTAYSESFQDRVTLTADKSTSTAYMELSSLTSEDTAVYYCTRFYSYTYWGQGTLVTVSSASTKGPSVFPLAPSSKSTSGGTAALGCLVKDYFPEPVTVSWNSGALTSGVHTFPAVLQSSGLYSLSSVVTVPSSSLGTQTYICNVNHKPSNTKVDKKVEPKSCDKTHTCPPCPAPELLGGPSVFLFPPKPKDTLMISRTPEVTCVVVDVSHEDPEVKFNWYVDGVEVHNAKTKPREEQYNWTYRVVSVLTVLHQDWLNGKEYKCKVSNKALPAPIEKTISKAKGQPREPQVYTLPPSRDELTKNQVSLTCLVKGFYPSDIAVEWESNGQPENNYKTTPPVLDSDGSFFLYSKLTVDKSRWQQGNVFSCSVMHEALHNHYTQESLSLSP
# light: B1 light
# notes: as for B1
# B12: GpH7-B3/GpL16-k0 variant D270G (antibody, human IgG1)
# heavy: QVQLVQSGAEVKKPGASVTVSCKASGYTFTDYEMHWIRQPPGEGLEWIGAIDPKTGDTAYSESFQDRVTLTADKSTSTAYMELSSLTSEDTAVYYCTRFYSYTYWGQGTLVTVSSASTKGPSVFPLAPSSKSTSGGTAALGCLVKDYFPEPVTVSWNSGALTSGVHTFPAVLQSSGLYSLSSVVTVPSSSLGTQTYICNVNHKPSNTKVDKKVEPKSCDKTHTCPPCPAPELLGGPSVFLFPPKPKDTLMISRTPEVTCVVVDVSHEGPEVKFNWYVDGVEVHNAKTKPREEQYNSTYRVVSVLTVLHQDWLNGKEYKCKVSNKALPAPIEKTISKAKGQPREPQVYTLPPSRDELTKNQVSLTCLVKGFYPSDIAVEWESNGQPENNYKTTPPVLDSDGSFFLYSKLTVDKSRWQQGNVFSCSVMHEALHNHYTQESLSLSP
# light: B1 light
# notes: as for B1
# B13: GpH7-B3/GpL16-k0 variant D270R (antibody, human IgG1)
# heavy: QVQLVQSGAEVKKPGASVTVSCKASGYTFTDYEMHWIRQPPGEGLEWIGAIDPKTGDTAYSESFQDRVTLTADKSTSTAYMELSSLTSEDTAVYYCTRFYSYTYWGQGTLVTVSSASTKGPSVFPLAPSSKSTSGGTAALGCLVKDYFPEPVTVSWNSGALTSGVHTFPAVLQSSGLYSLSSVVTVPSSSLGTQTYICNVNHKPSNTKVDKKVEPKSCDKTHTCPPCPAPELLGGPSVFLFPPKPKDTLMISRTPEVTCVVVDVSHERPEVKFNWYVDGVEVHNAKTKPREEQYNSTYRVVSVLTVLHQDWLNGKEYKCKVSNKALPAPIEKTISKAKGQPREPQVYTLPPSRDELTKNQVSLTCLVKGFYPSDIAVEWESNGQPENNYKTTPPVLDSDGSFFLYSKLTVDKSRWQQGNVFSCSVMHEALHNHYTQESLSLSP
# light: B1 light
# notes: as for B1
# B14: GpH7-B3/GpL16-k0 variant P271T (antibody, human IgG1)
# heavy: not shown
# light: B1 light
# notes: as for B1
# B15: GpH7-B3/GpL16-k0 variant D270W (antibody, human IgG1)
# heavy: not shown
# light: B1 light
# notes: as for B1
# B16: GpH7-B3/GpL16-k0 variant Q295D (antibody, human IgG1)
# heavy: not shown
# light: B1 light
# notes: as for B1
# B17: GpH7-B3/GpL16-k0 variant D270L (antibody, human IgG1)
# heavy: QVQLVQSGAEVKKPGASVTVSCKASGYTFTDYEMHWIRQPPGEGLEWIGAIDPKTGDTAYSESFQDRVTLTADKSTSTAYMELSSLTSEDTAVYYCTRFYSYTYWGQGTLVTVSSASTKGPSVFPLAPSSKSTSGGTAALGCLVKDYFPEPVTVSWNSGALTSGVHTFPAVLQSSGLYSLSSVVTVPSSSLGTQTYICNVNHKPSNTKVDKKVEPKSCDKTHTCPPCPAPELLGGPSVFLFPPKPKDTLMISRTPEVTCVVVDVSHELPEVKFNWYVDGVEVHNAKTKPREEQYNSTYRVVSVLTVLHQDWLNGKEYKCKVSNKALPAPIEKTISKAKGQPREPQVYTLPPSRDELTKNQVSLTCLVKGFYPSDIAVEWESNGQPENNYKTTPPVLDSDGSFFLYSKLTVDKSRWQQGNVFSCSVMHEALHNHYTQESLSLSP
# light: B1 light
# notes: as for B1
# B18: GpH7-B3/GpL16-k0 variant D270K (antibody, human IgG1)
# heavy: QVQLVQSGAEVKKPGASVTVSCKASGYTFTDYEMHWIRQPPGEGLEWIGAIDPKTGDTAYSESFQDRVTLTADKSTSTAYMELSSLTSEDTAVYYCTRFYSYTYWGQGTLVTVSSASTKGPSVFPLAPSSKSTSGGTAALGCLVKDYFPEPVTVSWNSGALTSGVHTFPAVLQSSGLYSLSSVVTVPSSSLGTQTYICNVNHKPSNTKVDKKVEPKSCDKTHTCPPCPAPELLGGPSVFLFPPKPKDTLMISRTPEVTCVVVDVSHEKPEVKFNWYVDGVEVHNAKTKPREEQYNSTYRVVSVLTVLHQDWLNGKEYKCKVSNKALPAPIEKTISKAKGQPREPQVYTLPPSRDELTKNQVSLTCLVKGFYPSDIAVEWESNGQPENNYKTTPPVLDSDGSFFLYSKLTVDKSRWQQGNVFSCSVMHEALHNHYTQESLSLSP
# light: B1 light
# notes: as for B1
# B19: GpH7-B3/GpL16-k0 variant D270F (antibody, human IgG1)
# heavy: not shown
# light: B1 light
# notes: as for B1
# B20: GpH7-B3/GpL16-k0 variant P271Y (antibody, human IgG1)
# heavy: not shown
# light: B1 light
# notes: as for B1
# B21: GpH7-B3/GpL16-k0 variant D270H (antibody, human IgG1)
# heavy: not shown
# light: B1 light
# notes: as for B1
# B22: GpH7-B3/GpL16-k0 variant P271S (antibody, human IgG1)
# heavy: not shown
# light: B1 light
# notes: as for B1
# B23: GpH7-B3/GpL16-k0 variant D270T (antibody, human IgG1)
# heavy: not shown
# light: B1 light
# notes: as for B1
# B24: GpH7-B3/GpL16-k0 variant D270M (antibody, human IgG1)
# heavy: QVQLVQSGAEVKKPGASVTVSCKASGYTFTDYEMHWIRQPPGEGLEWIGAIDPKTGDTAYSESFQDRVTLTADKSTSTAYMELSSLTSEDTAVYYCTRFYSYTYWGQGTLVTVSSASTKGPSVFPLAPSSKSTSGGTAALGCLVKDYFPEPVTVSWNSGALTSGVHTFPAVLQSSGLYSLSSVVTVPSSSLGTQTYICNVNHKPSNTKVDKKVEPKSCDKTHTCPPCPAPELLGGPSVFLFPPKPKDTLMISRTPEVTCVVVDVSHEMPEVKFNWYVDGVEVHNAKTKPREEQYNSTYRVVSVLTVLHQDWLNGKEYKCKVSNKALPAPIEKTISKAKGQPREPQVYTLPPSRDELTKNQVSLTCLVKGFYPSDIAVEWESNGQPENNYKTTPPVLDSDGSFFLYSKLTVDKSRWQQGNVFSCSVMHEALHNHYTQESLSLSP
# light: B1 light
# notes: as for B1
# B25: GpH7-B3/GpL16-k0 variant D270A (antibody, human IgG1)
# heavy: not shown
# light: B1 light
# notes: as for B1
# B26: GpH7-B3/GpL16-k0 variant P271R (antibody, human IgG1)
# heavy: not shown
# light: B1 light
# notes: as for B1
# B27: GpH7-B3/GpL16-k0 variant D270S (antibody, human IgG1)
# heavy: not shown
# light: B1 light
# notes: as for B1
# B28: GpH7-B3/GpL16-k0 variant D270Y (antibody, human IgG1)
# heavy: not shown
# light: B1 light
# notes: as for B1
# Biological target: T4, human FcγRIa (human, UniProt P12314 16-292, limits assumed)
# T4 construct: also called FcgRIa; CD64
# Experiment: SPR (Biacore), antibody captured, FcγR as analyte; amount bound / that of GpH7-B3/GpL16-k0 x 100;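 also: FcγR binding response divided by the captured antibody amount before comparison, measured at 25 °C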
# Method: (§1) Interaction between each modified antibody and Fcγ receptor prepared in the manner described above was analyzed using the BIACORE™ T100 surface plasmon resonance system (GE Healthcare), BIACORE™ T200 surface plasmon resonance system (GE Healthcare), BIACORE™ A100 surface plasmon resonance system or BIACORE™ 4000 surface plasmon resonance system. HBS-EP+(GE Healthcare) was used for the running buffer, and measurements were carried out at 25° C. The chips used were chips in which antigen peptides, Protein A (Thermo Scientific), Protein A/G (Thermo Scientific) or Protein L (ACTIGEN® protein (Alltech or BioVision) were immobilized on the Series S Sensor Chip CM5 (GE Healthcare) or Series S Sensor Chip CM4 (GE Healthcare) by amine coupling, or chips in which preliminarily biotinylated antigen peptides were allowed to interact and then immobilized on the Series S Sensor Chip SA (certified) (GE Healthcare). The target antibodies were captured on these sensor chips, Fcγ receptor diluted with the running buffer was allowed to interact, followed by measurement of the amount of bound antibody. The amounts bound were compared between antibodies. However, since the amount of Fcγ receptor bound depends on the amount of captured antibody, the values used for comparison were first corrected by dividing the amount of Fcγ receptor bound by the captured amount of each antibody. Through reaction with 10 mM glycine-HCl at pH 1.5, the sensor chips were regenerated by washing off antibody captured on the sensor chips and used repeatedly.
# (§2) Binding strength was evaluated according to the following method based on the results of analyzing the interaction with each FcγR. […] That value was then further multiplied by 100, and the resulting value was used as an indicator of relative binding activity to each FcγR.
# T4 sequence (P12314 16-292 limits assumed): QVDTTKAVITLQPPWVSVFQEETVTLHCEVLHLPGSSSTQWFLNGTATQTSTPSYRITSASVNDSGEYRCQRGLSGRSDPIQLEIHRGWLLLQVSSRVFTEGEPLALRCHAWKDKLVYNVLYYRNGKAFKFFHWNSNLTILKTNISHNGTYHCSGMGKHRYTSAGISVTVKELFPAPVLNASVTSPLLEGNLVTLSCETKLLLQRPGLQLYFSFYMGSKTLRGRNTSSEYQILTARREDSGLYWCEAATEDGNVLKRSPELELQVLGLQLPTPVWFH
row,relative binding activity [GpH7-B3/GpL16-k0 = 100],Binder
1,64,B1
2,99,B2
3,68,B3
4,45,B4
5,99,B5
6,88,B6
7,98,B7
8,82,B8
9,100,B9
10,84,B10
11,69,B11
12,82,B12
13,45,B13
14,98,B14
15,74,B15
16,95,B16
17,90,B17
18,45,B18
19,88,B19
20,98,B20
21,70,B21
22,99,B22
23,81,B23
24,90,B24
25,87,B25
26,100,B26
27,73,B27
28,78,B28

# Biological target: T1, human FcγRIIa(R)
# Experiment: as above
# Method: as §1, §2
row,relative binding activity [GpH7-B3/GpL16-k0 = 100],Binder
1,-3,B1
2,46,B2
3,-1,B3
4,10,B4
5,49,B5
6,3,B6
7,58,B7
8,2,B8
9,46,B9
10,1,B10
11,19,B11
12,3,B12
13,-5,B13
14,73,B14
15,-2,B15
16,43,B16
17,6,B17
18,-4,B18
19,5,B19
20,38,B20
21,0,B21
22,83,B22
23,1,B23
24,7,B24
25,3,B25
26,89,B26
27,0,B27
28,-2,B28

# Biological target: T2, human FcγRIIa(H)
# Experiment: as above
# Method: as §1, §2
row,relative binding activity [GpH7-B3/GpL16-k0 = 100],Binder
1,0,B1
2,74,B2
3,34,B3
4,8,B4
5,55,B5
6,43,B6
7,58,B7
8,78,B8
9,75,B9
10,37,B10
11,17,B11
12,29,B12
13,11,B13
14,42,B14
15,38,B15
16,37,B16
17,61,B17
18,16,B18
19,62,B19
20,48,B20
21,53,B21
22,67,B22
23,38,B23
24,57,B24
25,66,B25
26,99,B26
27,49,B27
28,53,B28

# Biological target: T3, human FcγRIIb
# Experiment: as above
# Method: as §1, §2
row,relative binding activity [GpH7-B3/GpL16-k0 = 100],Binder
1,1,B1
2,30,B2
3,-2,B3
4,7,B4
5,38,B5
6,1,B6
7,53,B7
8,0,B8
9,33,B9
10,3,B10
11,3,B12
12,-5,B13
13,78,B14
14,-2,B15
15,40,B16
16,3,B17
17,-5,B18
18,5,B19
19,28,B20
20,-2,B21
21,82,B22
22,2,B23
23,6,B24
24,5,B25
25,87,B26
26,-1,B27
27,-2,B28

# Biological target: T5, human FcγRIIIa(F) (human, UniProt P08637 17-208, limits assumed)
# T5 construct: also called FcgRIIIaF; FcγRIIIa allotype F158
# Experiment: as above
# Method: as §1, §2
# T5 sequence (P08637 other isoform, or with tags, fused parts or gaps limits assumed): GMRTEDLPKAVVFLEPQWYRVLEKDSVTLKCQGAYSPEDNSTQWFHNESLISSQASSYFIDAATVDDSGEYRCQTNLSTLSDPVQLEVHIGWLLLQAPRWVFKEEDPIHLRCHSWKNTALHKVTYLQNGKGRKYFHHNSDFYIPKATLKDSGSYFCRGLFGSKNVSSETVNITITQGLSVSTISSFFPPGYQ
row,relative binding activity [GpH7-B3/GpL16-k0 = 100],Binder
1,-1,B1
2,46,B2
3,13,B3
4,39,B5
5,23,B6
6,50,B7
7,49,B8
8,57,B9
9,19,B10
10,11,B11
11,6,B12
12,2,B13
13,31,B14
14,7,B15
15,64,B16
16,33,B17
17,5,B18
18,12,B19
19,33,B20
20,11,B21
21,62,B22
22,29,B24
23,23,B25
24,76,B26
25,17,B27
